The experiment deals with SARS-CoV (2003) RBD (SARS-CoV, UniProt P59594). The experiment in a line: BLI. For orientation: In BLI a coated tip is dipped into the sample, and binding shifts an interference pattern.

B1: VHH-Fc (antibody, V domains shown)
VH: QVQLQESGGGLVQTGGSLRLSCAASGSFFSINDMGWYRQAPGKQRELVAMITGDDSTNYADSVKGRFTISRDNLKNTVYLQMNSLKPEDTALYYCNAEVKVIIWDSRFNYYWGQGTQVTVSS
Broadly, the Kd is the free concentration of one partner at which half of the binding sites on the other are occupied at equilibrium, for simple one-to-one binding. A high value points to lower affinity. Molecule B1 gave a dissociation constant (Kd) of 13 nM.
